Assay results as given in patent US20100297122A1.

Biological target: zTNF4 (UniProt Q9Y275)
Assay: cell-based or functional assay

Sequence of UniProt Q9Y275 (Q9Y275 134-285 limits assumed): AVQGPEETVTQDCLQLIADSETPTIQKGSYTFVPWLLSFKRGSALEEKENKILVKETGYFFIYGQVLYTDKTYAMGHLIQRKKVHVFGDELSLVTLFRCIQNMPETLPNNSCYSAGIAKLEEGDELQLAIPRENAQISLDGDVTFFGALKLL
Sequence of Atacicept (chain): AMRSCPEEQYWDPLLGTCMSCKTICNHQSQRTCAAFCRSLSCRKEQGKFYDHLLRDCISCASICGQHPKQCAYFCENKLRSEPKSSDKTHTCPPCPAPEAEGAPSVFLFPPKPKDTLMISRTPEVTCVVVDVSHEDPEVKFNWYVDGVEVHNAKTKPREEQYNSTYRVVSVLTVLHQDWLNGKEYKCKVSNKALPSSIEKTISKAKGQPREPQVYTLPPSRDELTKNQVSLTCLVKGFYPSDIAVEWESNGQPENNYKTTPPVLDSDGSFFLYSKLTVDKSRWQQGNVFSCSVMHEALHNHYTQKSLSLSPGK

Substance: Atacicept (Fc fusion)
- Biological activity (U/mL); Atacicept 25/1; 1 Mo +5° C.: 137000 U/mL
- Biological activity (U/mL); Atacicept 25/1; 1 Mo+25° C.: 134000 U/mL
- Biological activity (U/mL); Atacicept 25/1; 2 Mo +5° C.: 135000 U/mL
- Biological activity (U/mL); Atacicept 25/1; 2 Mo+25° C.: 125000 U/mL
- Biological activity (U/mL); Atacicept 25/1; 3 Mo +5° C.: 136000 U/mL
- Biological activity (U/mL); Atacicept 25/1; 3 Mo+25° C.: 132000 U/mL
- Biological activity (U/mL); Atacicept 25/1; 6 Mo +5° C.: 127000 U/mL
- Biological activity (U/mL); Atacicept 25/1; 6 Mo+25° C.: 118000 U/mL
- Biological activity (U/mL); Atacicept 25/1; 9 Mo +5° C.: 147000 U/mL
- Biological activity (U/mL); Atacicept 25/1; 12 Mo +5° C.: 131000 U/mL
- Biological activity (U/mL); Atacicept 25/1; 18 Mo +5° C.: 108000 U/mL
- Biological activity (U/mL); Atacicept 25/1; Zero Time (5° C. block): 140000 U/mL
- Biological activity (U/mL); Atacicept 25/1; Zero Time (25° C. block): 140000 U/mL
- Biological activity (U/mL); Atacicept 25/1.2; 1 Mo +5° C.: 116000 U/mL
- Biological activity (U/mL); Atacicept 25/1.2; 1 Mo+25° C.: 114000 U/mL
- Biological activity (U/mL); Atacicept 25/1.2; 2 Mo +5° C.: 126000 U/mL
- Biological activity (U/mL); Atacicept 25/1.2; 2 Mo+25° C.: 118000 U/mL
- Biological activity (U/mL); Atacicept 25/1.2; 3 Mo +5° C.: 122000 U/mL
- Biological activity (U/mL); Atacicept 25/1.2; 3 Mo+25° C.: 114000 U/mL
- Biological activity (U/mL); Atacicept 25/1.2; 6 Mo +5° C.: 115000 U/mL
- Biological activity (U/mL); Atacicept 25/1.2; 6 Mo+25° C.: 103000 U/mL
- Biological activity (U/mL); Atacicept 25/1.2; 9 Mo +5° C.: 124000 U/mL
- Biological activity (U/mL); Atacicept 25/1.2; 12 Mo +5° C.: 106000 U/mL
- Biological activity (U/mL); Atacicept 25/1.2; 18 Mo +5° C.: 113000 U/mL
- Biological activity (U/mL); Atacicept 25/1.2; Zero Time (5° C. block): 112000 U/mL
- Biological activity (U/mL); Atacicept 25/1.2; Zero Time (25° C. block): 112000 U/mL
- Biological activity (U/mL); Atacicept 75/1; 1 Mo +5° C.: 410000 U/mL
- Biological activity (U/mL); Atacicept 75/1; 1 Mo+25° C.: 388000 U/mL
- Biological activity (U/mL); Atacicept 75/1; 2 Mo +5° C.: 380000 U/mL
- Biological activity (U/mL); Atacicept 75/1; 2 Mo+25° C.: 337000 U/mL
- Biological activity (U/mL); Atacicept 75/1; 3 Mo +5° C.: 374000 U/mL
- Biological activity (U/mL); Atacicept 75/1; 3 Mo+25° C.: 365000 U/mL
- Biological activity (U/mL); Atacicept 75/1; 6 Mo +5° C.: 364000 U/mL
- Biological activity (U/mL); Atacicept 75/1; 6 Mo+25° C.: 328000 U/mL
- Biological activity (U/mL); Atacicept 75/1; 9 Mo +5° C.: 468000 U/mL
- Biological activity (U/mL); Atacicept 75/1; 12 Mo +5° C.: 346000 U/mL
- Biological activity (U/mL); Atacicept 75/1; Zero Time (5° C. block): 423000 U/mL
- Biological activity (U/mL); Atacicept 75/1; Zero Time (25° C. block): 423000 U/mL
- Biological activity (U/mL); Atacicept 150/1; 1 Mo +5° C.: 775000 U/mL
- Biological activity (U/mL); Atacicept 150/1; 1 Mo+25° C.: 777000 U/mL
- Biological activity (U/mL); Atacicept 150/1; 2 Mo +5° C.: 755000 U/mL
- Biological activity (U/mL); Atacicept 150/1; 2 Mo+25° C.: 720000 U/mL
- Biological activity (U/mL); Atacicept 150/1; 3 Mo +5° C.: 819000 U/mL
- Biological activity (U/mL); Atacicept 150/1; 3 Mo+25° C.: 761000 U/mL
- Biological activity (U/mL); Atacicept 150/1; 6 Mo +5° C.: 815000 U/mL
- Biological activity (U/mL); Atacicept 150/1; 6 Mo+25° C.: 677000 U/mL
- Biological activity (U/mL); Atacicept 150/1; 9 Mo +5° C.: 843000 U/mL
- Biological activity (U/mL); Atacicept 150/1; 12 Mo +5° C.: 810000 U/mL
- Biological activity (U/mL); Atacicept 150/1; 18 Mo +5° C.: 565000 U/mL
- Biological activity (U/mL); Atacicept 150/1; Zero Time (5° C. block): 836000 U/mL
- Biological activity (U/mL); Atacicept 150/1; Zero Time (25° C. block): 836000 U/mL
- Biological activity (U/mL); Atacicept 150/1.2; 1 Mo +5° C.: 643000 U/mL
- Biological activity (U/mL); Atacicept 150/1.2; 1 Mo+25° C.: 695000 U/mL
- Biological activity (U/mL); Atacicept 150/1.2; 2 Mo +5° C.: 743000 U/mL
- Biological activity (U/mL); Atacicept 150/1.2; 2 Mo+25° C.: 697000 U/mL
- Biological activity (U/mL); Atacicept 150/1.2; 3 Mo +5° C.: 695000 U/mL
- Biological activity (U/mL); Atacicept 150/1.2; 3 Mo+25° C.: 607000 U/mL
- Biological activity (U/mL); Atacicept 150/1.2; 6 Mo +5° C.: 645000 U/mL
- Biological activity (U/mL); Atacicept 150/1.2; 6 Mo+25° C.: 587000 U/mL
- Biological activity (U/mL); Atacicept 150/1.2; 9 Mo +5° C.: 714000 U/mL
- Biological activity (U/mL); Atacicept 150/1.2; 12 Mo +5° C.: 620000 U/mL
- Biological activity (U/mL); Atacicept 150/1.2; 18 Mo +5° C.: 551000 U/mL
- Biological activity (U/mL); Atacicept 150/1.2; Zero Time (5° C. block): 647000 U/mL
- Biological activity (U/mL); Atacicept 150/1.2; Zero Time (25° C. block): 647000 U/mL

Substance: TACI-Fc5 (Fc fusion)
- Bioassay (U/mL); 21A, 70 mg/mL; 2-8° C.; 4 w: 366000 U/mL
- Bioassay (U/mL); 21A, 70 mg/mL; 2-8° C.; 8 w: 319000 U/mL
- Bioassay (U/mL); 21A, 70 mg/mL; 2-8° C.; 13 w: 388000 U/mL
- Bioassay (U/mL); 21A, 70 mg/mL; 2-8° C.; time 0: 348000 U/mL
- Bioassay (U/mL); 21A, 70 mg/mL; 25° C.; 4 w: 312000 U/mL
- Bioassay (U/mL); 21A, 70 mg/mL; 25° C.; 8 w: 279000 U/mL
- Bioassay (U/mL); 21A, 70 mg/mL; 25° C.; 13 w: 305000 U/mL
- Bioassay (U/mL); 21A, 70 mg/mL; 25° C.; time 0: 348000 U/mL
- Bioassay (U/mL); 21B, 70 mg/mL; 2-8° C.; 4 w: 318000 U/mL
- Bioassay (U/mL); 21B, 70 mg/mL; 2-8° C.; 8 w: 290000 U/mL
- Bioassay (U/mL); 21B, 70 mg/mL; 2-8° C.; 13 w: 358000 U/mL
- Bioassay (U/mL); 21B, 70 mg/mL; 2-8° C.; time 0: 336000 U/mL
- Bioassay (U/mL); 21B, 70 mg/mL; 25° C.; 4 w: 302000 U/mL
- Bioassay (U/mL); 21B, 70 mg/mL; 25° C.; 8 w: 268000 U/mL
- Bioassay (U/mL); 21B, 70 mg/mL; 25° C.; 13 w: 343000 U/mL
- Bioassay (U/mL); 21B, 70 mg/mL; 25° C.; time 0: 336000 U/mL
- Bioassay (U/mL); 21C, 70 mg/mL; 2-8° C.; 4 w: 334000 U/mL
- Bioassay (U/mL); 21C, 70 mg/mL; 2-8° C.; 8 w: 307000 U/mL
- Bioassay (U/mL); 21C, 70 mg/mL; 2-8° C.; 13 w: 335000 U/mL
- Bioassay (U/mL); 21C, 70 mg/mL; 2-8° C.; time 0: 323000 U/mL
- Bioassay (U/mL); 21C, 70 mg/mL; 25° C.; 4 w: 316000 U/mL
- Bioassay (U/mL); 21C, 70 mg/mL; 25° C.; 8 w: 269000 U/mL
- Bioassay (U/mL); 21C, 70 mg/mL; 25° C.; 13 w: 318000 U/mL
- Bioassay (U/mL); 21C, 70 mg/mL; 25° C.; time 0: 323000 U/mL
- Bioassay (U/mL); 21D, 100 mg/mL; 2-8° C.; 4 w: 452000 U/mL
- Bioassay (U/mL); 21D, 100 mg/mL; 2-8° C.; 8 w: 432000 U/mL
- Bioassay (U/mL); 21D, 100 mg/mL; 2-8° C.; 13 w: 490000 U/mL
- Bioassay (U/mL); 21D, 100 mg/mL; 2-8° C.; time 0: 461000 U/mL
- Bioassay (U/mL); 21D, 100 mg/mL; 25° C.; 4 w: 509000 U/mL
- Bioassay (U/mL); 21D, 100 mg/mL; 25° C.; 8 w: 431000 U/mL
- Bioassay (U/mL); 21D, 100 mg/mL; 25° C.; 13 w: 419000 U/mL
- Bioassay (U/mL); 21D, 100 mg/mL; 25° C.; time 0: 461000 U/mL
- Bioassay (U/mL); 21E, 100 mg/mL; 2-8° C.; 4 w: 439000 U/mL
- Bioassay (U/mL); 21E, 100 mg/mL; 2-8° C.; 8 w: 436000 U/mL
- Bioassay (U/mL); 21E, 100 mg/mL; 2-8° C.; 13 w: 470000 U/mL
- Bioassay (U/mL); 21E, 100 mg/mL; 2-8° C.; time 0: 459000 U/mL
- Bioassay (U/mL); 21E, 100 mg/mL; 25° C.; 4 w: 442000 U/mL
- Bioassay (U/mL); 21E, 100 mg/mL; 25° C.; 8 w: 396000 U/mL
- Bioassay (U/mL); 21E, 100 mg/mL; 25° C.; 13 w: 405000 U/mL
- Bioassay (U/mL); 21E, 100 mg/mL; 25° C.; time 0: 459000 U/mL
- Bioassay (U/mL); 21F, 100 mg/mL; 2-8° C.; 4 w: 470000 U/mL
- Bioassay (U/mL); 21F, 100 mg/mL; 2-8° C.; 8 w: 407000 U/mL
- Bioassay (U/mL); 21F, 100 mg/mL; 2-8° C.; 13 w: 424000 U/mL
- Bioassay (U/mL); 21F, 100 mg/mL; 2-8° C.; time 0: 456000 U/mL
- Bioassay (U/mL); 21F, 100 mg/mL; 25° C.; 4 w: 449000 U/mL
- Bioassay (U/mL); 21F, 100 mg/mL; 25° C.; 8 w: 387000 U/mL
- Bioassay (U/mL); 21F, 100 mg/mL; 25° C.; 13 w: 476000 U/mL
- Bioassay (U/mL); 21F, 100 mg/mL; 25° C.; time 0: 456000 U/mL
- Bioassay (U/mL); 21G, 100 mg/mL; 2-8° C.; 4 w: 543000 U/mL
- Bioassay (U/mL); 21G, 100 mg/mL; 2-8° C.; 8 w: 401000 U/mL
- Bioassay (U/mL); 21G, 100 mg/mL; 2-8° C.; 13 w: 445000 U/mL
- Bioassay (U/mL); 21G, 100 mg/mL; 2-8° C.; time 0: 494000 U/mL
- Bioassay (U/mL); 21G, 100 mg/mL; 25° C.; 4 w: 497000 U/mL
- Bioassay (U/mL); 21G, 100 mg/mL; 25° C.; 8 w: 433000 U/mL
- Bioassay (U/mL); 21G, 100 mg/mL; 25° C.; 13 w: 441000 U/mL
- Bioassay (U/mL); 21G, 100 mg/mL; 25° C.; time 0: 494000 U/mL
- Bioassay (U/mL); 21H, 100 mg/mL; 2-8° C.; 4 w: 446000 U/mL
- Bioassay (U/mL); 21H, 100 mg/mL; 2-8° C.; 8 w: 388000 U/mL
- Bioassay (U/mL); 21H, 100 mg/mL; 2-8° C.; 13 w: 445000 U/mL
- Bioassay (U/mL); 21H, 100 mg/mL; 2-8° C.; time 0: 472000 U/mL
- Bioassay (U/mL); 21H, 100 mg/mL; 25° C.; 4 w: 465000 U/mL
- Bioassay (U/mL); 21H, 100 mg/mL; 25° C.; 8 w: 366000 U/mL
- Bioassay (U/mL); 21H, 100 mg/mL; 25° C.; 13 w: 434000 U/mL
- Bioassay (U/mL); 21H, 100 mg/mL; 25° C.; time 0: 472000 U/mL
